Target: Toxoplasma gondii ABCB7 homolog (TGGT1_269000) (Toxoplasma gondii)
Test: native gel or EMSA

## Toxoplasma gondii ABCB7 homolog (TGGT1_269000) (natural protein)
  stoichiometry N: 2
